This is an account of results in US20260070994A1 (PASSION TECHNOLOGY ZHUHAI PARTNERSHIP LIMITED PARTNERSHIP, published 2026).

Residue numbers refer to the chain shown, from its start. Where two headings read alike, the source gives them in different places.

Assay [1] has as its target T1, CD25-His recombinant protein (human, UniProt P01589 22-240).
T1 chain: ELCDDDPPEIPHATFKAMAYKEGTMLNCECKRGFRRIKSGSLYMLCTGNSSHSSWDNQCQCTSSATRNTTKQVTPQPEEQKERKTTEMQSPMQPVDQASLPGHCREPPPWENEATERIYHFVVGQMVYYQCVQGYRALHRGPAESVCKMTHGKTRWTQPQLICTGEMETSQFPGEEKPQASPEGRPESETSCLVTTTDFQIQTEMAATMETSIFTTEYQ
Put plainly: ELISA.

The target in assay [2] is T2, CD25 on the CHO-CD25-overexpressing cell line (human, UniProt P01589 22-272).
T2 chain: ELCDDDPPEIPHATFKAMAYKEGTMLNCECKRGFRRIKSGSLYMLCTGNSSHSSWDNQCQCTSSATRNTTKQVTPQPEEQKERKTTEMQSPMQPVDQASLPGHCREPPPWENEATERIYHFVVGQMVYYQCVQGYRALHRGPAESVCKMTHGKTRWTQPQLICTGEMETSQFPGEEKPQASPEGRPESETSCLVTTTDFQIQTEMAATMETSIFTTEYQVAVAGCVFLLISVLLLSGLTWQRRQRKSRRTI
Put plainly: FACS. For orientation: Flow cytometry measures light scatter and fluorescence of single cells or particles in a stream.

Assay [3] addresses T3, CD25-His recombinant protein (human, UniProt P01589 22-240, limits assumed).
T3 construct: Recombinant antigen made by the applicant; also called CD25-His antigen; CD25 antigen; not shown: His tag
T3 sequence (looked up): T1 chain
Put plainly: ELISA on CD25 antigen, transfection supernatant 5 µL. As to the method:
The CD25-His protein was coated on a 96-well microplate. After the candidate antibodies were transiently transfected into 293F cells for 48 hours, the supernatant was collected and ELISA detection was performed.
On the technique in general: An ELISA detects its analyte on a solid surface through an enzyme-linked reagent.

For assay [4], the target named is T1, CD25-His recombinant protein. The experiment in a line: BLI.
The target of assay [5] is T4, CD25 on the CHO-CD25-overexpressing cell line (human, UniProt P01589 22-272).
T4 sequence (looked up): T2 chain
Put plainly: cell-based or functional assay.

In assay [6] the target is T2, CD25 on the CHO-CD25-overexpressing …. The experiment in a line: FACS.
In assay [7] the target is T3, CD25-His recombinant protein. Put plainly: ELISA on human CD25 antigen, antibody 0.016 µg/ml.
Assay [8] shares this target. The experiment in a line: ELISA on human CD25 antigen, antibody 10 µg/ml.

B1: D01 (VHH)
VHH: QVQLVESGGGLAQPGGSLRLSCAASGFTFSNFAVSWARQVAGEGFEWVSGVYSDGDTYYADSVKDRFIISRDNAKNTLYLQMNSLKPEDTALYYCGAARGRLCSSIMTCDYWGQGTQVTVSS
For the molecule B1, the concentration giving a half-maximal response (EC50) (commonly the concentration that produces a half-maximal response) amounted to 0.0261 µg/mL in assay [1] and 1.27 µg/mL in assay [2].

B2: E08 (VHH)
VHH: AVQLVESGGGLVQPGGSLRLSCAASGFTFSSYPMGWYRQAPGEECELVAGITSAGGSTNYADSVKGRFTISRDNAKNTVYLQMNSLKPEDTAVYYCNTDPRYYTDSRGPCSWGQGTQVTVSS
As for B2, the EC50 in assay [1] came to 0.00875 µg/mL; in assay [2], 1.14 µg/mL.

B3: D04 (VHH)
VHH: QVQLVESGGGLVQPGGSLRLSCAASGFTFSSSAVSWARLTPGKRLEWVSAIASDGSTYYADSMQGRFTISRDNAKNTVYLQMNSLKPEDTAVYYCAIPRDGLVPVFGIDYWGQGTQVTVSS
For B3, the EC50 in assay [1] was found to be 0.0281 µg/mL.

B4: B10 (VHH)
VHH: EVQLVESGGGLVQPGGSLRLSCAVFGVTLDSYAIGWFRQAPGKEREGVSCISTSDGRTWETDAVLGRFTISRDNAKNTVYLQMNDLKPEDTAVYYCGADGRDWCSAHVYSRYEYDYSGQGTQVTVSS
notes: Tested as transfection supernatant
As to B4, in assay [3], the “ELISA OD” value was found to be 4.38.

B5: A07-HM5 (VHH)
VHH: EVQLVESGGGLVQPGGSLRLSCAVSGFTLDYYAIGWFRQAPGKGLEGVSCISGSDGRTAYADSVKGRFTISKDNAKNTVYLQMNSLRAEDTAVYYCAADPGYYCAGEVRYAGSLYDYWGQGTLVTVSS
B5: the Kd – broadly, the free concentration of one partner at which half of the binding sites on the other are occupied at equilibrium, for simple one-to-one binding – in assay [4] amounted to 9.62 nM. Further, in assay [5], the “ADCC EC50” value amounted to 0.0074 µg/mL. The same molecule displayed an EC50 in assay [6] of 0.632 µg/mL.

B6: clone A07 (VHH)
VHH: B5 VHH with V12A, G44E, L45R, A61T, R87K, A88P, L123Q
notes: Recombinant antibody from a eukaryotic expression vector (293F); also called A-A7; A-A07-VHH
On to B6, for which the “ELISA OD” value stood at 0.2 in assay [7] and 4.39 in assay [8]. Also, in assay [4], the Kd was 6.67 nM. Further, the EC50 in assay [1] is 0.0559 µg/mL; in assay [2] it was 2.8 µg/mL; in assay [6] it was 0.399 µg/mL. Further, the “ADCC EC50” value in assay [5] was 0.0186 µg/mL.

B7: A07-HM6 (VHH)
VHH: B5 VHH with V5L, A61G
As to B7, in assay [4], the Kd was 14.6 nM. Besides, the “ADCC EC50” value in assay [5] is 0.0047 µg/mL. In assay [6], this molecule registered an EC50 of 0.772 µg/mL.

B8: B04 (VHH)
VHH: QVQLVESGGGLVQPGGSLRLSCATSGFTLDYYAIGWFRQAPGKEREGVSCISSSDGTTAYADSVKGRFTISTDNARNTVYLQMNSLKPEDTAVYYCAADLGYYCADNVRYAGSLYDYWGQGTQVTVSS
On to B8, for which the EC50 in assay [1] was 0.164 µg/mL; in assay [2] it was 7.02 µg/mL.

B9: G10 (VHH)
VHH: DVQLVESGGGLAQPGGSLRLSCAASGFTFSNYAMNWLRQAPGKGLEWVSGIYSDSSGTYYADSVKGRFTISRDNAKNTLYLQMNSLKPEDTALYYCAKASNSGSYYPWDDDWGQGTQVTVSA
Consider B9, for which the EC50 was 0.0193 µg/mL in assay [1] and 1.88 µg/mL in assay [2].

B10: A11 (VHH)
VHH: DVQLVESGGGLVQPGGSLRLSCAASGFTFSSYAMSWYRQAPGKERELVAYITTSPGYTTYTDSVKGRFTISRDNAKNTVYLQMNSLKPDDTAVYYCNAWRGAPRGDYWGQGTQVTVSS
Take B10: the values for the EC50 in assay [1] and in assay [2] were 0.0128 µg/mL and 2.8 µg/mL, respectively.

B11: A05 (VHH)
VHH: QVQLVESGGGLAQPGGSLRLSCAASGFTFSIYAMSWARQAPGKGLEWVSGIYSDSSYTYYADSVKGRFTISRDNAKNTLYLQMNSLKPEDTALYYCLKARGSGSYYPFDDYRGQGTQVTVSS
With B11, the results for the EC50 in assay [1] and in assay [2] were 0.0177 µg/mL and 1.59 µg/mL, respectively.
